In the supplement of paper PMC9170038:

Test system: MS2 coat protein
Test: apparent KD of MS2 coat protein; designed switch direction (-1 OFF switch, 1 ON switch): 1; higher = weaker reporter binding
Summary of the method: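 An oligonucleotide input, 200 uM small-molecule ligand, or no input was present during titration of SNAP-549-labelled MS2 coat protein, which was doubled from 0.7 or 1.5 nM to 3 µM. Designed RNA switches had been transcribed on Illumina chips by stalled E. coli RNA polymerase. Apparent KD per design is the median over clusters of curves fitted to normalised cluster fluorescence.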

[1] = input ligand: microRNA oligo, concentration not stated
[2] = Eterna round: R95, input ligand: FMN 200 uM
[3] = Eterna round: R95, input ligand: microRNA oligo, concentration not stated
[4] = Eterna round: R95, input ligand: none

| Sequence | apparent KD of MS2 coat protein (input ligand: FMN 200 uM) [nM] | apparent KD of MS2 coat protein [1] [nM] | apparent KD of MS2 coat protein (input ligand: none) [nM] | apparent KD of MS2 coat protein [2] [nM] | apparent KD of MS2 coat protein [3] [nM] | apparent KD of MS2 coat protein [4] [nM] |
| --- | --- | --- | --- | --- | --- | --- |
| ACUUACAUGGUAGGAUAUGUCCGUCUAGCUGACACAGAAGGGCCAAGCUCUACGACAUGAGGAUCACCCAUGUGAAGGAGAGGC [Eternabot solution 49] (Eterna round: R96, puzzle: Same State NG 1) | 15.1 | 13.6 | 18.3 |  |  |  |
| AGAAAACAUGAGGAUCACCCAUGUAUAGUGAAUACAGGAUAUCACCGACGGAAUAAUUGGUGAGAAGGGUGAUCGC [Ceaqu] (puzzle: Same State 1) |  |  |  | 21.2 | 11.8 | 23.2 |
| AGAGAACAUGAGGAUCACCCAUGUAGGAUGGGCAUAGGAUAUAGAAGGAUGAGGGAGAAACUAGAAGGAUGAUGGA [JR_SS1_Sub077] (puzzle: Same State 1) |  |  |  | 124 | 152 | 278 |
| AGAGCCGGCACUGAGGAUAUUCAUAAUAAAACAUGAGGAUCACCCAUGUAGGCCAGAAGGCCUUGGGAGAAGGCAGGUCGGCUCG [Mat - Same State 2 - Mod of UCT - D68] (puzzle: Same State 2) |  |  |  | 17.3 | 122 | 200 |
| AGAUCAUGACGAGGAUAUGCAACAUGAGGAUCACCCAUGUAUGUUGCAGGACGCGUACGUCCAAUGUAGAAGGCGUCGUGGUCA [JL SSNG2 1.06] (Eterna round: R96, puzzle: Same State NG 2) | 40.2 | 146 | 150 |  |  |  |
| AGAUGUUAAUCAGGAUAUGGGCACAUGAGGAUCACCCAUGUAAAUUAGAUACUAUGUGGUCAAGUCUAGAAGGGAUGGCUAACA [SameState NG2 #81] (Eterna round: R96, puzzle: Same State NG 2) | 346 | 145 | 182 |  |  |  |
| AGCAUACAUGAGGAUCACCCAUGUCAACUUAGUCGAGGAUAUGGGCAGCCGUGAGGCGAACCAGAAGGCGAAUUGA [Mat - Same State 1 - Mod of JL - D2] (puzzle: Same State 1) |  |  |  | 18.5 | 28.1 | 26.2 |
| AGCGAGAUAGGCAAGGAUAUGCUGGGUUGCACAUGAGGAUCACCCAUGUCAUUGGUUAUGGCCGAGCAGAAGGUGCAUUCUCUUU [ak bound state near shape] (puzzle: Same State 2) |  |  |  | 19.5 | 75.6 | 66.5 |
| AGCUAAAACGAAGGAUAUACUGACAUGAGGAUCACCCAUGUCUACAUGAUUUAUUGUGAUCACAUGUAGAAGGUCGUACUAACA [SameState NG2 #22] (Eterna round: R96, puzzle: Same State NG 2) |  | 58.5 |  |  |  |  |
| AGCUAGUACCGAGGAUAUACAUACAUGAGGAUCACCCAUGUAUACAUGAAUUAAUGAGACUACAUGUAGAAGGCGGUACUAGCA [JL SSNG2 1.22] (Eterna round: R96, puzzle: Same State NG 2) |  | 54 |  |  |  |  |
| AGCUAUUAAUCAGGAUAUAGGGACAUGAGGAUCACCCAUGUAUACAUGAUGAAAUGUGGUCACCUCUAGAAGGGAUUACUAACA [SameState NG2 #42] (Eterna round: R96, puzzle: Same State NG 2) | 155 | 109 | 178 |  |  |  |
| AGCUAUUAAUCAGGAUAUGGUCACAUGAGGAUCACCCAUGUAUAGAUGAUAAAAUGUGGUCUACACUAGAAGGGAUUGCUAACA [SameState NG2 #59] (Eterna round: R96, puzzle: Same State NG 2) | 89.5 | 78.9 | 106 |  |  |  |
| AGCUAUUACGAAGGAUAUAGUGACAUGAGGAUCACCCAUGUGUACAUGAGUAAUUGUGAUCACGUCUAGAAGGUUGUACUAACA [SameState NG2 #35] (Eterna round: R96, puzzle: Same State NG 2) | 181 | 165 | 180 |  |  |  |
| AGCUAUUACGAAGGAUAUUCUGACAUGAGGAUCACCCAUGUCUUCAUGAUUUAUUGUGAUCACAUGAAGAAGGUUGUACUAACA [SameState NG2 #25] (Eterna round: R96, puzzle: Same State NG 2) | 106 | 130 | 93.1 |  |  |  |
| AGCUAUUACGAAGGAUAUUCUGACAUGAGGAUCACCCAUGUCUUCAUGAUUUAUUGUGAUCACGUGGAGAAGGUUGUACUAACA [SameState NG2 #27] (Eterna round: R96, puzzle: Same State NG 2) | 90.4 | 77.9 | 91.4 |  |  |  |
| AGCUUGUAACAUGAGGAUCACCCAUGUACAAGCUUUUUGCUCGUUUUACCCGGGCCCGGCGAUUACACGGGCCCGGG [Optimized Design] (puzzle: Sensor for hsa-mir-208a version 2) |  |  |  | 10.1 | 9.89 | 9.67 |

| Sequence | apparent KD of MS2 coat protein (input ligand: FMN 200 uM) [nM] | apparent KD of MS2 coat protein [1] [nM] | apparent KD of MS2 coat protein (input ligand: none) [nM] | apparent KD of MS2 coat protein [2] [nM] | apparent KD of MS2 coat protein [3] [nM] | apparent KD of MS2 coat protein [4] [nM] |
| --- | --- | --- | --- | --- | --- | --- |
| AGGACGAGCACAGGAUAUCCGCGGAACAGCCGCGGAGAAGGGUGAAGUCAUGGAAAGAAAAGACAUGAGGAUCACCCAUGUAAA [Ageteerer] (Eterna round: R96, puzzle: Same State NG 1) | 223 | 1320 | 680 |  |  |  |
| AGGCAAGCUUUUUGCUGGUAUGGAGGAUAACAUGAGGAUCACCCAUGUAUUGGAGGUGUUGUGGAUUUGAGAAAGAA [JR_SHM208A_Sub004] (puzzle: Sensor for hsa-mir-208a) |  |  |  | 74 | 94.6 | 103 |
| AGGUUCCUGCUAGGAUAUCUAGGAUAUGGACGAGGAUUACCCGAGCAGGAUUACCGCACCAGAGGAGAGAAGGAGCAACAAGAG [pwkr ssNG2 2F5 2FMN.14] (Eterna round: R96, puzzle: Same State NG 2) | 1740 | 370 | 160 |  |  |  |
| AGUAGGGCGUCAUAGGAUAUCCGGAAGAGUACAUGAGGAUCACCCAUGUCACUCCGCCAUGCAGAGGAGAAGGGUGGUGUUGUAC [Biedzage] (puzzle: Same State 2) |  |  |  | 77.6 | 36.6 | 41 |
| AGUCCAGCCAGAGCUGGACAAAAGCAUGUACAUGAGGAUCACCCAUGUUCAUGUACAAGCUUUUUGCUCGUCUUAAU [Mat - hsa-mir-208a - Mod of JL - 59] (Eterna round: R96, puzzle: Sensor for hsa-mir-208a) | 620 | 15.3 | 583 |  |  |  |
| AGUCCAGCCAGAGCUGGACAAAAGCAUGUACAUGAGGAUCACCCAUGUUCAUGUACAAGCUUUUUGCUCGUCUUAAU [Mat - hsa-mir-208a - Mod of JL - 59] (puzzle: Sensor for hsa-mir-208a) |  |  |  | 482 | 14.1 | 553 |
| AGUCCAGCCUGAGCUGGACAAAAGCAUGUACAUGAGGAUCACCCAUGUCAUGUACAAGCUUUUUGCUAGUCUUAAAA [Mat - hsa-mir-208a - Mod of JL - D12] (puzzle: Sensor for hsa-mir-208a) |  |  |  | 413 | 13.7 | 551 |
| AGUCCAGCCUGAGCUGGACAAAAGCAUGUACAUGAGGAUCACCCAUGUUCAUGUACAAGCUUUUUGCUCGUCUUAUA [salish99_208a_r3_043] (puzzle: Sensor for hsa-mir-208a) |  |  |  | 528 | 14.6 | 697 |
| AGUCCAGCCUGAGCUGGACAAAAGCAUGUACAUGAGGAUCACCCAUGUUCAUGUACAAGCUUUUUGUUCGUCUUAAA [Zipper 52 - 9] (puzzle: Sensor for hsa-mir-208a) |  |  |  | 179 | 11 | 431 |
| AGUCCAGCCUGAGCUGGACAAAAGCAUGUACAUGAGGAUCACCCAUGUUCAUGUACUAGCUUUUUGCUCGUCUUGCC [salish99_208a_r3_108x] (puzzle: Sensor for hsa-mir-208a) |  |  |  | 157 | 14.8 | 163 |
| AGUCCAGCCUGAGCUGGACAAAAGCGUGUACAUGAGGAUCACCCAUGUCAUGUACAAGCUUUUUGCUCGUCUUAAAA [Zipper 46 - 7] (puzzle: Sensor for hsa-mir-208a) |  |  |  | 63.5 | 19.9 | 69.8 |
| AGUCCAGCCUGAGCUGGACAAAGGCAUGUACAUGAGGAUCACCCAUGUCAUGUACAAGCUUUUUGCUCGUCUUAAAA [Zipper 46 - 1] (puzzle: Sensor for hsa-mir-208a) |  |  |  | 161 | 14.9 | 187 |
| AGUCCAGCCUGAGCUGGACAGAAGCAUGUACAUGAGGAUCACCCAUGUCAUGUACAAGCUUUUUGCUCGUCUUAAUA [Zipper 49 - 3] (puzzle: Sensor for hsa-mir-208a) |  |  |  | 459 | 16.2 | 641 |
| AGUCCAGCGAAAGCUGGACAAAAGUAUGUACAUGAGGAUCACCCAUGUUCAUGUACAAGCUUUUUGCUCGUUUUAAA [JL mod - D95 - 19] (puzzle: Sensor for hsa-mir-208a) |  |  |  | 814 | 48.1 | 928 |
| AGUCCAGGCUGACCUGGACAAAAGCAUGUACAUGAGGAUCACCCAUGUCAUGUACAAGCUUUUUGCUCGUCUUAAAA [Mat - hsa-mir-208a - Mod of JL - D16] (puzzle: Sensor for hsa-mir-208a) |  |  |  | 701 | 14.3 | 637 |
